Reference: patent US20250281611A1 (BIOSCEPTRE AUST, published 2025)
Values belong to the binder of their own block, whether it stands above or below them.

Key:
CD19 [1] = target: T1, CD19 (UniProt P15391 20-556, limits assumed); assay: flow cytometry, JeKo-1 cells, anti-His-FITC detection, MFI over no-bridge control
T1 construct: whole, on cells; also called CD19 on JeKo-1
T1 sequence (looked up): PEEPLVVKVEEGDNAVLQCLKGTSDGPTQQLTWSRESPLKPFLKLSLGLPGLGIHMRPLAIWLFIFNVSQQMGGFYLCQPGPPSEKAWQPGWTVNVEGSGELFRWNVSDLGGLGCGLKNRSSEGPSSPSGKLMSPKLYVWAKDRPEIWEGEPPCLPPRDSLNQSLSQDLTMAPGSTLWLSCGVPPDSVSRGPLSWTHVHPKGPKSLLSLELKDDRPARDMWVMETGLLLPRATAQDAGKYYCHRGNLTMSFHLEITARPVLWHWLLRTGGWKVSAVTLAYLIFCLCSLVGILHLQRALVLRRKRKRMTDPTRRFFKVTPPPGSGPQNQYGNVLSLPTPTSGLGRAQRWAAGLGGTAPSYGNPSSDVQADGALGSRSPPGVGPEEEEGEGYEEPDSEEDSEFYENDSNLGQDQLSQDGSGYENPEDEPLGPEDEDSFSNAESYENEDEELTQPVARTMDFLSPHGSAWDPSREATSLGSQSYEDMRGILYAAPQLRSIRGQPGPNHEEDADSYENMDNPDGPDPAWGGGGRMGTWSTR
Method: (§1) JeKo-1 cells were incubated with different CD19 BRiDGE variants at saturating concentrations. […] The MFI intensity correlates with the number of secondary bound antibodies bound to the CD19 BRiDGE variants that are only detected if they are bound to the JeKo-1 cells. MFI: median fluorescence intensity. BLitz: Bio-Layer interferometry (BLI) technology using HIS-tag identification tips. […] The higher the MFIR, the stronger the binding.

nfP2X7 CAR 1 [2] = target: T2, nfP2X7 CAR 1; assay: flow cytometry, anti-His-FITC, MFI on EGFR+ (CAR+) T cells over background 0.44
T2 construct: CAR-positive cells gated by the co-expressed EGFR marker; also called nfP2X7 targeted CAR; nfP2X7 CAR on EGFR+ T cells
Method: (§2) nfP2X₇ CAR T cells were incubated with different BRiDGE variants at saturating concentrations. […] The MFI intensity correlates with the number of secondary bound antibodies bound to the BRiDGEs that are only detected if they are bound to the CAR T cells. EGFR was used as a marker gene to detect the CAR expression. Thus, the EGFR+ T cell population was defined as the CAR expressing cells and the EGFR− T cell population was defined as the CAR negative subset. MFI: median fluorescence intensity. EGFR: epidermal growth factor receptor. BLItz: Bio-Layer interferometry (BLI) technology using HIS-tag identification tips. HIS-tag MFI Ratio: relative index that is calculated by the testing condition MFI divided by the control MFI, which corresponds to the MFI measured on EGFR+ T cells (defined as CAR positive cells) divided by the MFI measured on the EGFR− T cells (defined as CAR negative cells). […] The higher the MFIR, the stronger the binding.

CD19 [3] = target: T1, CD19; assay: flow cytometry, JeKo-1 cells, BIL03s-AF647 detection, MFI over no-bridge control
Method: as §1

CD19 [4] = target: T1, CD19; assay: flow cytometry, JeKo-1 cells, bridge at saturating conc., anti-His-FITC detection
Method: as §1

nfP2X7 CAR 1 [5] = target: T2, nfP2X7 CAR 1; assay: flow cytometry, anti-His-FITC, MFI on EGFR+ (CAR+) over EGFR- (CAR-) T cells
Method: as §2

nfP2X7 CAR 1 [6] = target: T2, nfP2X7 CAR 1; assay: flow cytometry, nfP2X7 CAR 1 T cells (EGFR+ gate), anti-His-FITC detection
Method: as §2

CD19 [7] = target: T1, CD19; assay: flow cytometry, JeKo-1 cells, bridge at saturating conc., BIL03s-AF647 detection
Method: as §1

B1: CD19 BRIDGE variant B8 (Fab, V domains shown)
VH: EVQLVESGGGLVKPGGSLKLSCAASGYTFTSYVMHWVRQAPGKGLEWIGYINPYNDGTKYNEKFQGRVTISSDKSISTAYMELSSLRSEDTAMYYCARGTYYYGTRVFDYWGQGTLVTVSS
VL: DIVMTQSPATLSLSPGERATLSCRSSKSLQNVNGNTYLYWFQQKPGQSPQLLIYRMSNLNSGVPDRFSGSGSGTEFTLTISSLEPEDFAVYYCMQHLEYPITFGAGTKLEIKR
- MFIR HisTag FITC (CD19 [1]): 4.65
- HisTag MFI Ratio (background 0.44) (nfP2X7 CAR 1 [2]): 5.8
- MFIR BIL03 AF647 (CD19 [3]): 23
- MFI HisTag FITC (CD19 [4]): 3.58
- HisTag MFI Ratio of EGFR+/EGFR- (nfP2X7 CAR 1 [5]): 4.4
- MFI HisTag FITC in EGFR+ Population (nfP2X7 CAR 1 [6]): 2.53
- MFI Bil03 AF647 (CD19 [7]): 10.6

B4: CD19 BRIDGE variant B9 (Fab, V domains shown)
VH: B1 VH
VL: B1 VL
- MFIR HisTag FITC (CD19 [1]): 3.9
- HisTag MFI Ratio (background 0.44) (nfP2X7 CAR 1 [2]): 5.3
- MFIR BIL03 AF647 (CD19 [3]): 10.5
- MFI HisTag FITC (CD19 [4]): 3
- HisTag MFI Ratio of EGFR+/EGFR- (nfP2X7 CAR 1 [5]): 4.1
- MFI HisTag FITC in EGFR+ Population (nfP2X7 CAR 1 [6]): 2.32
- MFI Bil03 AF647 (CD19 [7]): 4.82

B5: CD19 BRIDGE variant B6 (Fab)
heavy: EVQLVESGGGLVKPGGSLKLSCAASGYTFTSYVMHWVRQAPGKGLEWIGYINPYNDGTKYNEKFQGRVTISSDKSISTAYMELSSLRSEDTAMYYCARGTYYYGTRVFDYWGQGTLVTVSSASTKGPSVFPLAPSSKSTSGGTAALGCLVKDYFPEPVTVSWNSGALTSGVHTFPAVLQSSGLYSLSSVVTVPSSSLGTQTYICNVNHKPSNTKVDKKVEPKSCHHHHHH
light: GHNYTTRNILPGLNITSTFHKTSGSGKGGGSEPKSSDKTHTDIVMTQSPATLSLSPGERATLSCRSSKSLQNVNGNTYLYWFQQKPGQSPQLLIYRMSNLNSGVPDRFSGSGSGTEFTLTISSLEPEDFAVYYCMQHLEYPITFGAGTKLEIKRTVAAPSVFIFPPSDEQLKSGTASVVCLLNNFYPREAKVQWKVDNALQSGNSQESVTEQDSKDSTYSLSSTLTLSKADYEKHKVYACEVTHQGLSSPVTKSFNRGEC
- MFIR HisTag FITC (CD19 [1]): 4.32
- HisTag MFI Ratio (background 0.44) (nfP2X7 CAR 1 [2]): 4.5
- MFIR BIL03 AF647 (CD19 [3]): 11.5
- MFI HisTag FITC (CD19 [4]): 3.33
- HisTag MFI Ratio of EGFR+/EGFR- (nfP2X7 CAR 1 [5]): 4.1
- MFI HisTag FITC in EGFR+ Population (nfP2X7 CAR 1 [6]): 1.99
- MFI Bil03 AF647 (CD19 [7]): 5.29

B10: CD19 BRIDGE variant B11 (Fab)
heavy: B5 heavy
light: GHNYTTRNILPGLNITSTFHKTSGSGKGSEPKSSDKTHTGSDIVMTQSPATLSLSPGERATLSCRSSKSLQNVNGNTYLYWFQQKPGQSPQLLIYRMSNLNSGVPDRFSGSGSGTEFTLTISSLEPEDFAVYYCMQHLEYPITFGAGTKLEIKRTVAAPSVFIFPPSDEQLKSGTASVVCLLNNFYPREAKVQWKVDNALQSGNSQESVTEQDSKDSTYSLSSTLTLSKADYEKHKVYACEVTHQGLSSPVTKSFNRGEC
- MFIR HisTag FITC (CD19 [1]): 4
- HisTag MFI Ratio (background 0.44) (nfP2X7 CAR 1 [2]): 4.5
- MFIR BIL03 AF647 (CD19 [3]): 14
- MFI HisTag FITC (CD19 [4]): 3.08
- HisTag MFI Ratio of EGFR+/EGFR- (nfP2X7 CAR 1 [5]): 4
- MFI HisTag FITC in EGFR+ Population (nfP2X7 CAR 1 [6]): 2
- MFI Bil03 AF647 (CD19 [7]): 6.43

Now from value to binder:

- MFIR HisTag FITC (CD19 [1]): 3.88
- HisTag MFI Ratio (background 0.44) (nfP2X7 CAR 1 [2]): 4.8
- MFIR BIL03 AF647 (CD19 [3]): 11.5
- MFI HisTag FITC (CD19 [4]): 2.99
- HisTag MFI Ratio of EGFR+/EGFR- (nfP2X7 CAR 1 [5]): 4.1
- MFI HisTag FITC in EGFR+ Population (nfP2X7 CAR 1 [6]): 2.13
- MFI Bil03 AF647 (CD19 [7]): 5.28
B2: CD19 BRIDGE variant B13 (Fab, V domains shown)
VH: B1 VH
VL: B1 VL

- MFIR HisTag FITC (CD19 [1]): 4.05
- HisTag MFI Ratio (background 0.44) (nfP2X7 CAR 1 [2]): 5.5
- MFIR BIL03 AF647 (CD19 [3]): 15.8
- MFI HisTag FITC (CD19 [4]): 3.12
- HisTag MFI Ratio of EGFR+/EGFR- (nfP2X7 CAR 1 [5]): 4.5
- MFI HisTag FITC in EGFR+ Population (nfP2X7 CAR 1 [6]): 2.41
- MFI Bil03 AF647 (CD19 [7]): 7.27
B3: CD19 BRIDGE variant B14 (Fab, V domains shown)
VH: B1 VH
VL: B1 VL

- MFIR HisTag FITC (CD19 [1]): 3.71
- HisTag MFI Ratio (background 0.44) (nfP2X7 CAR 1 [2]): 5.3
- MFIR BIL03 AF647 (CD19 [3]): 17.6
- MFI HisTag FITC (CD19 [4]): 2.86
- HisTag MFI Ratio of EGFR+/EGFR- (nfP2X7 CAR 1 [5]): 4.6
- MFI HisTag FITC in EGFR+ Population (nfP2X7 CAR 1 [6]): 2.34
- MFI Bil03 AF647 (CD19 [7]): 8.08
B6: CD19 BRIDGE variant B16 (Fab)
heavy: B5 heavy
light: GHNYTTRNILPGLNITSTFHKTSGSGKEPKSSDKTHTGGGGSDIVMTQSPATLSLSPGERATLSCRSSKSLQNVNGNTYLYWFQQKPGQSPQLLIYRMSNLNSGVPDRFSGSGSGTEFTLTISSLEPEDFAVYYCMQHLEYPITFGAGTKLEIKRTVAAPSVFIFPPSDEQLKSGTASVVCLLNNFYPREAKVQWKVDNALQSGNSQESVTEQDSKDSTYSLSSTLTLSKADYEKHKVYACEVTHQGLSSPVTKSFNRGEC

- MFIR HisTag FITC (CD19 [1]): 3.78
- HisTag MFI Ratio (background 0.44) (nfP2X7 CAR 1 [2]): 5.9
- MFIR BIL03 AF647 (CD19 [3]): 18.7
- MFI HisTag FITC (CD19 [4]): 2.91
- HisTag MFI Ratio of EGFR+/EGFR- (nfP2X7 CAR 1 [5]): 4.8
- MFI HisTag FITC in EGFR+ Population (nfP2X7 CAR 1 [6]): 2.61
- MFI Bil03 AF647 (CD19 [7]): 8.58
B7: CD19 BRIDGE variant B15 (Fab)
heavy: B5 heavy
light: GHNYTTRNILPGLNITSGGGGSEPKSSDKTHTGGGGSDIVMTQSPATLSLSPGERATLSCRSSKSLQNVNGNTYLYWFQQKPGQSPQLLIYRMSNLNSGVPDRFSGSGSGTEFTLTISSLEPEDFAVYYCMQHLEYPITFGAGTKLEIKRTVAAPSVFIFPPSDEQLKSGTASVVCLLNNFYPREAKVQWKVDNALQSGNSQESVTEQDSKDSTYSLSSTLTLSKADYEKHKVYACEVTHQGLSSPVTKSFNRGEC

- MFIR HisTag FITC (CD19 [1]): 4.36
- HisTag MFI Ratio (background 0.44) (nfP2X7 CAR 1 [2]): 4.8
- MFIR BIL03 AF647 (CD19 [3]): 19.7
- MFI HisTag FITC (CD19 [4]): 3.36
- HisTag MFI Ratio of EGFR+/EGFR- (nfP2X7 CAR 1 [5]): 4.2
- MFI HisTag FITC in EGFR+ Population (nfP2X7 CAR 1 [6]): 2.12
- MFI Bil03 AF647 (CD19 [7]): 9.08
B8: CD19 BRIDGE variant B12 (Fab)
heavy: B5 heavy
light: GHNYTTRNILPGLNITSTFHKTSGSGKGGGGSEPKSSDKTHTGSDIVMTQSPATLSLSPGERATLSCRSSKSLQNVNGNTYLYWFQQKPGQSPQLLIYRMSNLNSGVPDRFSGSGSGTEFTLTISSLEPEDFAVYYCMQHLEYPITFGAGTKLEIKRTVAAPSVFIFPPSDEQLKSGTASVVCLLNNFYPREAKVQWKVDNALQSGNSQESVTEQDSKDSTYSLSSTLTLSKADYEKHKVYACEVTHQGLSSPVTKSFNRGEC

- MFIR HisTag FITC (CD19 [1]): 3.87
- HisTag MFI Ratio (background 0.44) (nfP2X7 CAR 1 [2]): 5.1
- MFIR BIL03 AF647 (CD19 [3]): 20.2
- MFI HisTag FITC (CD19 [4]): 2.98
- HisTag MFI Ratio of EGFR+/EGFR- (nfP2X7 CAR 1 [5]): 4.2
- MFI HisTag FITC in EGFR+ Population (nfP2X7 CAR 1 [6]): 2.25
- MFI Bil03 AF647 (CD19 [7]): 9.3
B9: CD19 BRIDGE variant B17 (Fab)
heavy: B5 heavy
light: GHNYTTRNILPGLNITSTFHKTSGSGKGSEPKSSDKTHTGGGGSDIVMTQSPATLSLSPGERATLSCRSSKSLQNVNGNTYLYWFQQKPGQSPQLLIYRMSNLNSGVPDRFSGSGSGTEFTLTISSLEPEDFAVYYCMQHLEYPITFGAGTKLEIKRTVAAPSVFIFPPSDEQLKSGTASVVCLLNNFYPREAKVQWKVDNALQSGNSQESVTEQDSKDSTYSLSSTLTLSKADYEKHKVYACEVTHQGLSSPVTKSFNRGEC
